{"source": "the DeepSol protein solubility set", "experiment": "soluble on expression in E. coli; label from the status in PepcDB or PDB records", "data": [{"sequence": "MKYYHHHHHHDYDIPTTENLYFQGAMAFDGEDEVTGPDADRARAAAVQAVPGGTAGEVETETGEGAAAYGVLVTRPDGTRVEVHLDRDFRVLDTEPADGDGG", "values": [{"measurement": "soluble on expression in E. coli", "result": "soluble"}]}, {"sequence": "MAASITAITVENLEYPAVVTSPVTGKSYFLGGAGERGLTIEGNFIKFTAIGVYLEDIAVASLAAKWKGKSSEELLETLDFYRDIISGPFEKLIRGSKIRELSGPEYSRKVMENCVAHLKSVGTYGDAEAEAMQKFAEAFKPVNFPPGASVFYRQSPDGILGLSFSPDTSIPEKEAALIENKAVSSAVLETMIGEHAVSPDLKRCLAARLPALLNEGAFKIGN", "values": [{"measurement": "soluble on expression in E. coli", "result": "soluble"}]}, {"sequence": "MGIKQYSQEELKEMALVEIAHELFEEHKKPVPFQELLNEIASLLGVKKEELGDRIAQFYTDLNIDGRFLALSDQTWGLRSWYPYDQLDEETQPTVKAKKKKAKKAVEEDLDLDEFEEIDEDDLDLDEVEEELDLEADDFDEEDLDEDDDDLEIEEDIIDEDDEDYDDEEEEIK", "values": [{"measurement": "soluble on expression in E. coli", "result": "not soluble"}]}, {"sequence": "MQDDPSTSPLTHSATLRRLLYEALDALGLDPTRVYRSVYRRIPLPPPTLGGRLVHDNAPLFWTELAAVTGDADIGLHLGEAMKPRLLDVVGYLLLSARDLEEALRSFVRFQHILSGGFAARLEVEGETARLILDINYLGYASLRQQIECLMLLFLKLLALISDDEFVAERIEFRHRAPPRLGEHRRLFGRLPLFSRPHDALVFSAALLRRPSRNANPDMHDVLTRHAEEQSRELSENRLLNRVRYLIELRLGEGYGLRQCAAELGLGSGALQRALAAGGASFRQVRDEVRRQRASEMLLAGRAIREVAKACGFAELSPFYRAFRRWHAAPPEQYRARLAKREEGYSTSGT", "values": [{"measurement": "soluble on expression in E. coli", "result": "not soluble"}]}, {"sequence": "MGSDKIHHHHHHMSKHVPKATLLTPSDVAFITDANRPVLTHTRNMAAEAGIEPHSHPRGQLLWAAKGLLRVRSENAVWVVPSTHAVWIPCNLPHQVNSETHAHTRNIYIDPSYDVRSLDTQVVMVTMTALMRELVLKLCESSHLMNSGQLHRLGLVAIDELETLDSLDAHLPAGSDPRLSRLIQKLIRHPTVNYTLTELAEMGGASVRTIERLFKAETGLTYRQWRQRFRLLNSLESLSQGESTTRVAHSLGYLSVSSFSAAFKMQFGCTPQDYPQHKPMKSKVNWFPDPVTGNN", "values": [{"measurement": "soluble on expression in E. coli", "result": "not soluble"}]}, {"sequence": "MRKALKDSKRIVVKVGTSTLTYENGSVNLMRIEKLSRVISDICNMGKEVVLVSSGAIGVGVGKLRLEKKPETIREKQAVAAVGQCALMHIYNKFFGEYSHVVAQVLLTRDVLENERMKNNVCNTFDTLLEKGIIPIVNENDAISIDEIQNILNFGDNDNLSAIVSTLVNADTLIILSDIDGFYDSDPRTNEDSKMLKEVYEITPEIEECAGGAGSNRGTGGMVTKLSAAKVATSNGIDMILANGENPEILIDILNGEDIGTMFVAKKGELEHHHHHH", "values": [{"measurement": "soluble on expression in E. coli", "result": "not soluble"}]}, {"sequence": "MGSDKIHHHHHHMYIFRSIHEIINTIFVAKGLLVEMFEKRKVLSFRYSDALALLKEDENRLKILIEKEIIHQNGNFVELDARFLDFFELLLEANEEINTATVEENIEYLHELMDYYLKEKIQSRKESYVRNIKITFQKLARVTIRNIINLQHNIDNAFKHEPTYQIKIAKLQNLDKKRINIQRLIDSTEHLILHEERDFFRQATDEELTRILLELRQELQLSAHSLIRAQQDIINYLNQIKNQVILVEKIRKVKYLQDQFELRARSNLSEIMERERSLLLEGNTQASFKLSPSYLASDEVRPIILKVISNQKYREIVRKNEAGAFSEEDLEAQAMYEEVINLDEVVTAFVQSGAEARWKGEPVSDLFSFLLQYHFHREVDEKERTTFFCQIVSLYESQLEIRNEFGLHNQYEYAKIYPL", "values": [{"measurement": "soluble on expression in E. coli", "result": "not soluble"}]}, {"sequence": "GLDTGALDQQQNNNGRESIRTVNVSVNNAVTKIVSNMSPAVVGVVNIQKSDIWGESGEAGSGSGVIYKKNDHSAYVVTNHHVIEGASQIEISLKDGSRVSADLVGSDQLMDLAVLRVKSDKIKAVADFGNSDKVKSGEPVIAIGNPLGLEFAGSVTQGVISGTERAIPVDSNGDGQPDWNAEVLQTDAAINPGNSGGALLNMDGKVIGINSMKIAESAVEGIGLSIPSKLVIPVIEDLERYGKVKRPFLGIEMKSLSDIASYHWDETLKLPKNVTNGAVVMGVDAFSPAGKAGLKELDVITEFDGYKVNDIVDLRKRLYQKKVGDRVKVKFYRGGKEKSVDIKLSSA", "values": [{"measurement": "soluble on expression in E. coli", "result": "not soluble"}]}, {"sequence": "MFGLRTRNQEAESEYRRFIKGLSDSMAMIEFDTRGIILNANDLFLSCVGYTREAIVGKHHSIFCDRGYVQSPRYQQFWDDLKMGKHKRGTFERLTSQRERLVLEASYFPIESEHGQIEKVVKIASDVTQQRLESEQKEAILNALDLSLATIEFDREGYILTANQNFLKTLGYELSDVQGKHHKLFCFDDFYQENPGFWKDLAAGQFKSGQFLRRSASGDKVYIEATYNPIFDPAGNVIKVVKFASDITDKVQRDLNISQAIADSSFIARNASEEATSNVCGAEHSLNEFRTMIEEVLRAVTACDDK", "values": [{"measurement": "soluble on expression in E. coli", "result": "not soluble"}]}, {"sequence": "MLSRAGKHRQLPSLRASQAEASPICSELEDKHKNVQEPDGISNHFLQEKKFAGSESKEYKRKDVVLYREKLLAPEVTNLVSREQMMMHPRDQYLHVLSPYCYSAIEVSHAVFSIFAYIVCDVNWSREYCSKHTTCKQDFKTMIIAVMREYLSMGEAADISRLPRAAMFNLQQAGQLATPTASGTQRRAEPETYVDLHALSDKINHLKTHCNYQIRRDRAFPPMVNLFEIEPRVPVKMSYFLAECKTYGIHQCLHPVSATVKQIDQAFLPAWKARVLFMLGWMDNFFDEDMDDLKRCIRKAINFKVPLKTWESEEDLMVVILEQNQAKLKLARECLTTISKCEHADPHDWLHCNRKRRERHFIVCEYKNPGIWHSSEILKISLKILRQCMGHATLDLKEVNVKSENKIGSDASPDVPLDKKKLKRQKQKLRKAAEPPEPTPPPPPPVIPVPEAKPCEKCFRTSERCNKANAELKTSLNKIKILEKKLSAEKRAFKENQETWEKKLEELQTELQAKERTIQEFQDKVAPKCAESVSDGFLRDGEELIATFDVTSSNATEEFESECIICREDIDLENGTVQCPRCTEIYHSHCATQWLSQKPTCPKCIFHIGHINEFPSLV", "values": [{"measurement": "soluble on expression in E. coli", "result": "not soluble"}]}, {"sequence": "AVANATELVNKISENCFEKCLTSPYATRNDACIDQCLAKYMRSWNVISKAYISRIQNASASGEI", "values": [{"measurement": "soluble on expression in E. coli", "result": "soluble"}]}, {"sequence": "MTIYHFVGIKGSGMSALAQILHDKGFQVQGSDVDKYFFTQKALEEKQIPIMTFSADNIKEGLTIIAGNAFPDTHEEIERANELNLPVIRYHKFLGQLIDGYTSIAITGSHGKTSTTGLLSHVVGAIRPTSYLIGDGTGSGTKDAKYFALEACEYQRHFLAYKPTYAIMTNIDWDHPDYFKSVDDVFNAFETLGKQVKKAVFALGDDVELRKLSLDVPIIYFGFGSENEFQAKNVKKETTGTKFDVYHRDEFLASFEIPAYGDHNVLNALSVIALCDYEGLPVDEVKKELKTFEGVKRRFSITEKGNQVLVDDYAHHPSEIRATVNAARQKYPNKKIVAVFQPHTFTRTRTFLQGFADSLNLADEVYLCDIFGSAREKTGNLTIADLAHKTKGNHIIKEEHTEELLQYPEAVILFMGAGDVQKFQAAYEKVLDNEIVANEVLKKSAIN", "values": [{"measurement": "soluble on expression in E. coli", "result": "not soluble"}]}, {"sequence": "MSLDKPYHVKFYSYNFPLPKPVVTAHGHWQRRRGLIVELTDQRGNRGRGEIAPLPWFGTEDLASATDFCRSLKGRITPAQIEKIGDRLPCCGFAFGSAEWELESGSVIENSPNSLSYCQLLPTGEAALDYLASNPQLGASTFKWKIGVGDFAVERDLYGQLWRRLPEGCQIRLDANGGLSVDIAQQWLTLLDRQRENSGPKIQYLEQPLPPGEIDEMFRLQEDFATSIALDEAVCSLAQLAQLYDKGWSGLYILKAAIMGNPRVLNHWLKTHPIPAIFSSVFETAIARGQVLALAQKWNLPDHAVGFAPLREPITEATPDSVEGHHHHHH", "values": [{"measurement": "soluble on expression in E. coli", "result": "soluble"}]}, {"sequence": "YHTEKTLPERTNEAAMSAAVVRGKLVWEQNNCVGCHTLLGEGAYFAPELGNVVGRRGGEEGFNTFLQAWMNIQPLNVPGRRAMPQFHLSEGQVDDLAEFLKWSSKIDTNQWPPNKEG", "values": [{"measurement": "soluble on expression in E. coli", "result": "not soluble"}]}, {"sequence": "GPLGSPILELKEKIQPEILELIKQQRLNRLVEGTCFRKLNARRRQDKFWYCRLSPNHKVLHYGDLEESPQGEVPHDSLQDKLPVADIKAVVTGKDCPHMKEKGALKQNKEVLELAFSILYDSNCQLNFIAPDKHEYCIWTDGLNALLGK", "values": [{"measurement": "soluble on expression in E. coli", "result": "soluble"}]}, {"sequence": "MSATSVDTQRTKGQDNKVQNGSLHQKDTVHDNDFEPYLTGQSNQSNSYPSMSDPYLSSYYPPSIGFPYSLNEAPWSTAGDPPIPYLTTYGQLSNGDHHFMHDAVFGQPGGLGNNIYQHRFNFFPENPAFSAWGTSGSQGQQTQSSAYGSSYTYPPSSLGGTVVDGQPGFHSDTLSKAPGMNSLEQGMVGLKIGDVSSSAVKTVGSVVSSVALTGVLSGNGGTNVNMPVSKPTSWAAIASKPAKPQPKMKTKSGPVMGGGLPPPPIKHNMDIGTWDNKGPVPKAPVPQQAPSPQAAPQPQQVAQPLPAQPPALAQPQYQSPQQPPQTRWVAPRNRNAAFGQSGGAGSDSNSPGNVQPNSAPSVESHPVLEKLKAAHSYNPKEFEWNLKSGRVFIIKSYSEDDIHRSIKYSIWCSTEHGNKRLDSAFRCMSSKGPVYLLFSVNGSGHFCGVAEMKSPVDYGTSAGVWSQDKWKGKFDVQWIFVKDVPNNQLRHIRLENNDNKPVTNSRDTQEVPLEKAKQVLKIISSYKHTTSIFDDFAHYEKRQEEEEVVRKERQSRNKQ", "values": [{"measurement": "soluble on expression in E. coli", "result": "soluble"}]}, {"sequence": "MSLASLPISNFFTFNHQSTLFTKVKNFMGVKHIGDCMKALINGTIYTSFSPVKKVSGLVISNERVLYAGDSSTALRIAELAGGEIIDLKGKFVMPAFFDSHLHLDELGMSLEMVDLRGVKSMEELVERVKKGRGRIIFGFGWDQDELGRWPTREDLDVIDRPVFLYRRCFHVAVMNSKMIDLLNLKPSKDFDESTGIVRERALEESRKIINEKILTVKDYKHYIESAQEHLLSLGVHSVGFMSVGEKALKALFELEREGRLKMNVFAYLSPELLDKLEELNLGKFEGRRLRIWGVKLFVDGSLGARTALLSEPYTDNPTTSGELVMNKDEIVEVIERAKPLGLDVAVHAIGDKAVDVALDAFEEAEFSGRIEHASLVRDDQLERIKELKVRISAQPHFIVSDWWIVNRVGEERAKWAYRLKTLSSITKLGFSTDSPIEPADPWVSIDAAVNRYVVDPGERVSREEALHLYTHGSAQVTLAEDLGKLERGFRAEYIILDRDPLKEMKGIITITTDPNSSSVDKLAAALEHHHHHH", "values": [{"measurement": "soluble on expression in E. coli", "result": "soluble"}]}, {"sequence": "MIILKLEDSWGFQISKIAQEMDSQFSKKLTKYDIGSREYGILLTIHQYALLTQLKIGELNKVDRTTIGQLVDLLERKDFVARQKNPKDRRQNLLVLTKTGRSLAEEMWQEMKEIEKDVLKHLSAKQKETLLTMVKAIRKGELN", "values": [{"measurement": "soluble on expression in E. coli", "result": "not soluble"}]}, {"sequence": "MNKVVLLCRPGFEKECAAEITDKAGQREIFGFARVKENAGYVIYECYQPDDGDKLIRELPFSSLIFARQWFVVGELLQHLPPEDRITPIVGMLQGVVEKGGELRVEVADTNESKELLKFCRKFTVPLRAALRDAGVLANYETPKRPVVHVFFIAPGCCYTGYSYSNNNSPFYMGIPRLKFPAEAPSRSTLKLEEAFHVFIPADEWDERLANGMWAVDLGACPGGWTYQLVKRNMWVYSVDNGPMAQSLMDTGQVTWLREDGFKFRPTRSNISWMVCDMVEKPAKVAALMAQWLVNGWCRETIFNLKLPMKKRYEEVSHNLAYIQAQLDEHGINAQIQARQLYHDREEVTVHVRRIWAAVGGRRDER", "values": [{"measurement": "soluble on expression in E. coli", "result": "not soluble"}]}, {"sequence": "LLSPPIALKPLDSSAKWRIIYWNPNGCDKTCLKQLNMLGRVRLSFGRKLYQVDEWLLLSNKDSLIAEELKPILKEQDIHVAALSLTEMSKLSTLYPEAKIFIANPDNYLILSYQPGCNPGDIYKDLKLLLNTTEIKSG", "values": [{"measurement": "soluble on expression in E. coli", "result": "soluble"}]}, {"sequence": "MDPFKKPVRMLPIKGAPISRPISVFTFDVFNPPDDSDGSSTPDSVFEAETSPARTPPTPALILPYDYVSSEDSDDEAQEHADNRDTNDQVSESSTSEDSDSESESSCDDTQQTFVDDESTSSSGEEDRDDPFESNDQGAQGGSTSESEDDLPAILRAARETQSDSSSDSSGNSHKKRRVQEEESSRILKTPAPISGNGKYNWPWLD", "values": [{"measurement": "soluble on expression in E. coli", "result": "soluble"}]}]}
